# T1: beta-carboxyltransferase (β-CT) subunit of hetACCase, ATCG00500, Arabidopsis thaliana (Arabidopsis thaliana, UniProt P56765 1-488)
# T1 construct: Native protein in chloroplast lysate
# T1 sequence (looked up): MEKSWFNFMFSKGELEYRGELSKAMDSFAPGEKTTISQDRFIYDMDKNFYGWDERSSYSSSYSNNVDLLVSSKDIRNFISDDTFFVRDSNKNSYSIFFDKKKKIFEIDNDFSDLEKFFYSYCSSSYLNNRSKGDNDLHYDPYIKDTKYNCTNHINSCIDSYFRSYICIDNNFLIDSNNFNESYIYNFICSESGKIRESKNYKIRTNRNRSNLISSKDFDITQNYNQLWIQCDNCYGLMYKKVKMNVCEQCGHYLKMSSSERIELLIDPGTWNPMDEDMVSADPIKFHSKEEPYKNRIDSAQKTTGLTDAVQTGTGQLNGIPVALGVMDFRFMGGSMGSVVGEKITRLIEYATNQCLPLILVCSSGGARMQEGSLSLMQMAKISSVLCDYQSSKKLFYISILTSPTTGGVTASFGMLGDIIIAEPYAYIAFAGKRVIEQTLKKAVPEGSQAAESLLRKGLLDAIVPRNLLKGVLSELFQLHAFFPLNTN
# Columns and labels:
# [1] = target: heteromeric acetyl-coenzyme A carboxylase (hetACCase) of Arabidopsis thaliana, in silique or leaf extracts (Arabidopsis thaliana) (UniProt O04983); test: inhibition of ACCase activity in 20-day-old A. thaliana leaf extracts with increasing recombinant BADC1, polynomial fit
# [2] = target: alpha-carboxyltransferase (α-CT) subunit of hetACCase, AT2G38040, Arabidopsis thaliana (Arabidopsis thaliana) (UniProt Q9LD43); test: co-IP from A. thaliana chloroplast lysate with anti-α-CT polyclonal antibody, LC-MS/MS
# [3] = target: the molecule itself; test: intact mass analysis and non-reducing SDS-PAGE of purified recombinant protein (only a monomer band)
# [4] = target: T1, beta-carboxyltransferase (β-CT) subunit …; test: co-IP from A. thaliana chloroplast lysate with anti-BCCP2 polyclonal antibody, LC-MS/MS
# Protocol: For co-innmunoprecipitation of hetACCase from Arabidopsis seedlings, crude chloroplasts were isolated from approximately 10 g 14-d-old A. thaliana seedlings after 1 h light exposure. Fresh leaves were homogenized in ice-cold grinding buffer (50 mM HEPES-KOH pH 8.0, 330 mM sorbitol, 1.5 mM MnCl₂, 2 mM MgCl₂, 2 mM EDTA, 0.1% (w/v) BSA) using a Waring blender. Homogenate was filtered through two layers of Miracloth and centrifuged at 2,600 g at 4° C. for 20 min. Chloroplasts were lysed for 30 min in ice-cold lysis buffer (50 mM HEPES-KOH pH 8.0, 10% (v/v) glycerol, 0.5% (v/v) Triton X-100). Lysates were homogenized ten times in a Dounce homogenizer on ice and then centrifuged at 30 k g for 20 min at 4° C. Then, 1 mL of the 30 k g supernatant was added to 25 μL Protein A-Sepharose beads (Sigma Aldrich) either uncoated (control) or coated with antibody specific for α-CT, BCCP, BADC1, or BADC2. Co-immunoprecipations (co-IP) were carried out at 4° C. for 3 h with gentle mixing. The heads were washed twice with 1 mL ice-cold lysis buffer and precipitated protein was eluted by adding 30 μL 6×SDS sample buffer (350 mM Tris-HCl, pH 6.8, 350 mM SDS, 30% (v/v) glycerol, 100 mM dithiothreitol, 2.5 mM bromophenol blue) and heating at 65° C. for 10 min. Eluted proteins were resolved on 10% SDS-PAGE gels for western and mass spectrometry analysis. […]
# Sequence of alpha-carboxyltransferase (α-CT) subunit of hetACCase, AT2G38040, Arabidopsis thaliana (Arabidopsis thaliana) (Q9LD43 55-769): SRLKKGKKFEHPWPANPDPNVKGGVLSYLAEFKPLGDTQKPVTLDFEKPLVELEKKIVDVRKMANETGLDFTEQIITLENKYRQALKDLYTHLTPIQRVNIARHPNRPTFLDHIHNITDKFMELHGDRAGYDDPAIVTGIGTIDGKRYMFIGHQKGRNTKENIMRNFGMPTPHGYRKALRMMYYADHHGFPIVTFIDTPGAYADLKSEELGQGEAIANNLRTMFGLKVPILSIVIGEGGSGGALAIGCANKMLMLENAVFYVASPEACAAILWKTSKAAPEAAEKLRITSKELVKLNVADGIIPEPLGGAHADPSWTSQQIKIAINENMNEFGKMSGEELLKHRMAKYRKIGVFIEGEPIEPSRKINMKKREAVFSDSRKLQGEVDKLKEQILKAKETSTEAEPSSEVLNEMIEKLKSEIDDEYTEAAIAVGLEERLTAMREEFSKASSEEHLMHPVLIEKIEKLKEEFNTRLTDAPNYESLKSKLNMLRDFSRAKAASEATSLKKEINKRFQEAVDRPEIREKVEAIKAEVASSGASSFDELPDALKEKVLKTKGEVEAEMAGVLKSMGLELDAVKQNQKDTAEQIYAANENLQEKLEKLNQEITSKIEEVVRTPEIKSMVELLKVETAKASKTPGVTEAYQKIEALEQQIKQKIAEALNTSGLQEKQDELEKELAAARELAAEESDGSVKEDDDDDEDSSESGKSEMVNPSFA
Binder,Ki [1] [µM],replicates of the co-IP in which the protein was present (of seven) [2] [replicates],binding result [3],binding result [4]
"BADC1 (biotin/lipoyl attachment domain-containing protein, AT3G56130), Arabidopsis thaliana (protein) AKAAKSSTTTISDGSSDASVSDGKKTVRRITFPKEVEALVHEMCDETEVAVLQLKVGDFEMNLKRKIGAATNPIPVADISPTVAPPIPSEPMNKSASSAPSPSQAKPSSEKVSPFKNTSYGKPAKLAALEASGSTNYVLVTSPAVGKFQRSRTVKGKKQSPSCKEGDAIKEGQVIGYLHQLGTELPVTSDVAGEVLKLLSDDGDSVGYGDPLVAVLPSFHDINIQ",4.3,1,–,–
"BADC2 (Single hybrid motif protein, AT1G52670), Arabidopsis thaliana (other, Native protein in chloroplast lysate for the co-IPs; Recombinant and two-hybrid constructs lack the TargetP-predicted transit peptide; His-tagged or untagged in co-expression; also called AtBADC2; NP_564612.1) TTLRSVKAIQLSTVPPAETEAIADVKDSDETKSTVVNTHLMPKSSEVEALISEITDSSSIAEFELKLGGFRLYVARKLTDESSPPPQQIQPVVAASATPEGVHTNGSATSSSLAITKTSSSSADRPQTLANKAADQGLVILQSPTVGYFRRSKTIKGKRTPTICKEKDIVKEGQVLCYIEQLGGQIPVESDVSGEIVKILREDGEPVGYNDALITVLPSFPGIKKLQ",–,2,no binding,–
"BCCP2 (biotin carboxyl carrier protein 2 subunit of hetACCase, AT5G15530), Arabidopsis thaliana (other, UniProt Q9LLC1 88-255, looked up, biotinylated (residue not given), Native protein in chloroplast lysate for the co-IPs; Recombinant and two-hybrid constructs lack the TargetP-predicted transit peptide; also called AtBCCP2; NP_568316.1) EFMAKVSGLLKLVDSKDIVELELKQLDCEIVIRKKEALQQAVPPAPVYHSMPPVMADFSMPPAQPVALPPSPTPTSTPATAKPTSAPSSSHPPLKSPMAGTFYRSPGPGEPPFVKVGDKVQKGQIVCIIEAMKLMNEIEAEKSGTIMELLAEDGKPVSVDTPLFVIAP",–,–,–,no binding

# From US20210171970A1 (CURATORS OF THE UNIVERSITY OF MISSOURI, published 2021)
